In one series the target is T1, enantioselective amidase (Rhodococcus erythropolis, UniProt P22984).
T1 sequence (P22984 2-521): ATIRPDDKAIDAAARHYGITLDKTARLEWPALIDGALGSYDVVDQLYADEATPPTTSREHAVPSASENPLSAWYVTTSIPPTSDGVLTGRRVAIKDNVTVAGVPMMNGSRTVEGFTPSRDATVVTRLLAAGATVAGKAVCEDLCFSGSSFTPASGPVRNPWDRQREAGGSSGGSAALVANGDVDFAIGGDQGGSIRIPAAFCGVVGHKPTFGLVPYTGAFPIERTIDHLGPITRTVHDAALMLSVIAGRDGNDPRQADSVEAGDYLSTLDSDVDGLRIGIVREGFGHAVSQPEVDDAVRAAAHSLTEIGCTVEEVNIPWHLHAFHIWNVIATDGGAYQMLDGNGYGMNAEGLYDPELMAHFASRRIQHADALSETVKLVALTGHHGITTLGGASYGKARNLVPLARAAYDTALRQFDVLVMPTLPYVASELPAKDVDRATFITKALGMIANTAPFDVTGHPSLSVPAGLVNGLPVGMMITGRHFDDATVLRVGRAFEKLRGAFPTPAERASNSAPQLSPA
The series is described as follows: Substrate preference of the enantioselective amidase. The format is biochemical, Brevibacterium R 312. Particulars: compared with the 2-arylpropionamide derivatives, especially 2-phenylpropionamide and 2-(3-benzoylphenyl)propionamide. The source says: Furthermore, the selectivity of the amidase towards the R enantiomer of HPPAmide is representative of the selectivity towards the S enantiomer of the 2-arylpropionamide derivatives.

A short description of series [1]: Enantioselective amidase activity with HPPAmide as substrate (HPLC). The format is biochemical. Particulars: purified enzyme, purity of more than 80%; 1 U = 1 μmol of HPPAcid formed per hour. The protocol:
b--one unit (U) is equivalent to 1 μmol of HPPAcid formed per hour under the conditions described below.
Consequently, the enantioselective enzymic activity was detected by using 2-(4-hydroxyphenoxy)propionamide (HPPAmide) as the substrate. The reaction is carried out at 25° C., with shaking, in a 50 mM sodium phosphate buffer, pH 7.0, in the presence of Brevibacterium R 312, and is stopped by the addition of a 55/40/5 (v/v) mixture of 0.05 M phosphoric acid, acetonitrile and 1 N HCl. The culture is then centrifuged and the supernatant is analyzed by reversed-phase HPLC (Hibar-Merck RP-18; 5 μm). Elution is effected with an 85/15 (v/v) solution of 0.005 M phosphoric acid and acetonitrile and the respective concentrations of HPPAmide and HPPAcid are measured by the position of the elution peaks and compared with a standard. The enantiomeric excess, defined as the ratio (R-S)/(R+S) x 100, in which R and S are the respective concentrations of the R and S enantiomers of the HPPAcid, is deduced either from polarimetric measurements (using the sodium absorption at 589 nm) or from HPLC analysis on a chiral column.

The nature of series [2]: Assay of the enzymic activity: hydrolysis of 2-phenylpropionamide (HPLC). The format is biochemical. The note with it: enzyme purified to homogeneity; 1 unit = 1 μmol of 2-phenylpropionamide hydrolyzed per h; 30° C., pH 7.5. The protocol:
The fraction containing the activity is incubated for 30 min at 30° C. in 500 μl of 0.1 M Tris/HCl buffer, pH 7.5, containing 5 mM DTT and 18.1 mM 2-phenylpropionamide. After incubation, 2 ml of an acetonitrile/1 N HCl mixture (90/10) and then 2 ml of a 50 mM H3 PO4 /CH3 CN mixture (75/25) are added to the incubation mixture. After centrifugation at 5000 g for 10 min, an aliquot of the supernatant is injected into an HPLC apparatus for assay of the reaction products.
Column: Nucleosil 5-C18 25 cm
One activity unit is defined as the amount of enzyme required to hydrolyze 1 μmol of 2-phenylpropionamide per h.

The source of these data is patent US5258292A, “Enzymic process for the synthesis of ammonium adipate” (Rhone-Poulenc Chimie, priority 1990, dated 1993).

For `CC(Oc1ccc(O)cc1)C(N)=O` (racemic) [R,S-2-(4-Hydroxyphenoxy)propionamide], on enantioselective amidase, the “substrate quality for the enantioselective amidase” value is given as “better substrate”.

B1: enantioselective amidase of Brevibacterium R 312: enzyme purified from Brevibacterium R 312, purity of more than 80%; sequence in FIG. 9 (protein)
chain: MATIRPDDKAIDAAARHYGITLDKTARLEWPALIDGALGSYDVVDQLYADEATPPTTSAEHAVPSASENPLSAWYVTTSIPPTSDGVLTGRRVAIKDNVTVAGVPMMNGSRTVEGFTPSRDATVVTRLLAAGATVAGKAVCEDLCFSGSSFTPASGPVRNPWDRQREAGGSSGGSAALVANGDVDFAIGGDQGGSIRIPAAFCGVVGHKPTFGLVPYTGAFPIERTIDHLGPITRTVHDAALMLSVIAGRDGNDPRQADSVEAGDYLSTLDSDVDGLRIGIVREGFGHAVSQPEVDDAVRAAAHSLTEIGCTVEEVNIPWHLHAFHIWNVIATDGGAYQMLDGNGYGMNAEGLYDPELMAHFASRRIQHADALSETVKLVALTGHHGITTLGGASYGKARNLVPLARAAYDTALRQFDVLVMPTLPYVASELPAKDVDRATFITKALGMIANTAPFDVTGHPSLSVPAGLVNGLPVGMMITGRHFDDATVLRVGRAFEKLRGAFPTPAERASNSAPQLSPA
For the molecule B1, the specific activity in series [1] was 815 U/mg.

B2: enantioselective amidase of a Rhodococcus: enzyme purified to homogeneity from a Rhodococcus; sequence in FIG. 14 (protein)
chain: GLHELTLAQVAAKIENKELSPVELLDVILARVAEIEPKISAFVTITADSARKAARLAADEIAGGHYRGPLHGVPIGLKDLFEVAGVPNTASSRVRADYIPSSDGAAVEKLTAGGAVMIGKTHTHEFAYGAITPTTRNPWDPTRTPGGSSGGTAAALAAGLIFAGMGTDTGGSIRIPAAVCGTVGLKPTYGRVSRRGVTSLSWSLDHAGPLARTVEDAAIMLNQIAGYDRADPATVDVPVPDYAAALTGDVRGLRIGVPTNFYTDNVHPEVAAAADAAVAQLAHLGAVVREVKIPMAEVIVPTEWSLLVPEASAYHQQMLRERADHYTDETRTFLEAGELVPATDYIKALRVRTLIQAAFRELFQDIDVLIAPTVSSPALPLDDLEVTWPDGTSEGGTITYVRLSAPGNVTGLPALSVPSGFTEQGLPTGIQIIGRPFDEETVLNVGHAYEGCTDWPRLAPL
Regarding B2, the specific activity in series [2] was 988 U/mg of protein.
